{
  "source": "paper PMC10078426",
  "about": "(2022)",
  "binders": {"B1": {"name": "protein G only (natural protein)", "chain": "VDSPIEDTPIIRNGGELTNLLGNSETTLALRNEESATADLTAAAVADTVAAAAAENAGAAAWEAAAAADALAKAKADALKEFNKYGVSDYYKNLINNAKTVEGVKDLQAQVVESAKKARISEATDGLSDFLKSQTPAEDTVKSIELAEAKVLANRELDKYGVSDYHKNLINNAKTVEGVKDLQAQVVESAKKARISEATDGLSDFLKSQTPAEDTVKSIELAEAKVLANRELDKYGVSDYYKNLINNAKTVEGVKALIDEILAALPKTDTYKLILNGKTLKGETTTEAVDAATAEKVFKQYANDNGVDGEWTYDDATKTFTVTEKPEVIDASELTPAVTTYKLVINGKTLKGETTTEAVDAATAEKVFKQYANDNGVDGEWTYDDATKTFTVTEKPEVIDASELTPAVTTYKLVINGKTLKGETTTKAVDAETAEKAFKQYANDNGVDGVWTYDDATKTFTVTEMVTEVPGDAPTEPEKPEASIPLVPLTPATPIAKDDAKKDDTKKEDAKKPEAKKEDAKKAETLPTT"}},
  "molecular_target": "human IgG from serum (human, UniProt P01857 = IgG part)",
  "experiment": "SPR",
  "data": [
    {"binder": "B1", "values": [
      {"measurement": "Kd", "value": 35.6, "unit": "nM"}
    ]}
  ]
}
